Measurements from patent US20080125498.

Key:
[1] = test system: N-terminal myc-tagged NR1-1a
[2] = target: NMDA receptor NR1 subunit in adult rat brain membranes (UniProt P35439)
[3] = target: T1, protease-activated receptor 1 (PAR1), mouse, endogenous in hippocampal slices and cultured astrocytes (UniProt P30558)
T1 sequence: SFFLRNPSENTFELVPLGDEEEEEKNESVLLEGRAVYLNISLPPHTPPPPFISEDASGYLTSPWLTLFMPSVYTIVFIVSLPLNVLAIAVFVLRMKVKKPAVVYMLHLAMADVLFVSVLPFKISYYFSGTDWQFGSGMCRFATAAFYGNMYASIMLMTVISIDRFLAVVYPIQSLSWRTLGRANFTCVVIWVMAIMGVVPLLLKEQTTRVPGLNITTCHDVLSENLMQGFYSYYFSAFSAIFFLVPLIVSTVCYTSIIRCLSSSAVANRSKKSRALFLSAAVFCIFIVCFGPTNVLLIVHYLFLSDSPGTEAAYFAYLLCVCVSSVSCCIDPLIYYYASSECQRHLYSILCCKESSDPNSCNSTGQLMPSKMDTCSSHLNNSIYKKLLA

[4] = test system: recombinant NR1-1b subunit transiently expressed in HEK 293 cells
[5] = target: endogenous plasminogen in mouse brain slices (UniProt P20918)
Sequence of endogenous plasminogen in mouse brain slices (P20918 20-812): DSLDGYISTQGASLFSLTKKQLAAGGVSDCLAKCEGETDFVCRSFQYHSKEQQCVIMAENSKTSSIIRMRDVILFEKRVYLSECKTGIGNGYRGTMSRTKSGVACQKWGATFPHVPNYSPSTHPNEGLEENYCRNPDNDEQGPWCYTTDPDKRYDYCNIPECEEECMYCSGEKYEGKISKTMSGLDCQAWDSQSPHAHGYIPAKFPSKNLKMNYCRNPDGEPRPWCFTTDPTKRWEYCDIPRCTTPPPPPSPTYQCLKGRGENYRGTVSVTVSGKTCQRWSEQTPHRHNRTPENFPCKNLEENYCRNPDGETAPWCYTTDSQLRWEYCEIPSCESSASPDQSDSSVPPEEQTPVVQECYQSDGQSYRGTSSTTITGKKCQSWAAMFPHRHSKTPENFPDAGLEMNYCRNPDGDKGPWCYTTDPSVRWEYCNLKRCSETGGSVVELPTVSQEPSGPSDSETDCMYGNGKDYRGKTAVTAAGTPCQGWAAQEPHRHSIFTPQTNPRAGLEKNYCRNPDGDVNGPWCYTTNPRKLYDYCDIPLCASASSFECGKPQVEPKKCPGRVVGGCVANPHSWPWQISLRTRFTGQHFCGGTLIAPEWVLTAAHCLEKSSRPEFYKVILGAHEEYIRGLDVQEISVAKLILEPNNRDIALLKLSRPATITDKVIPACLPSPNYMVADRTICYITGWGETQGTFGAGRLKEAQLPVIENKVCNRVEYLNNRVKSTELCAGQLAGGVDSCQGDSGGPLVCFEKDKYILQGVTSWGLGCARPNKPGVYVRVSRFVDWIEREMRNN

Sequence of tissue plasminogen activator (P00750 36-562): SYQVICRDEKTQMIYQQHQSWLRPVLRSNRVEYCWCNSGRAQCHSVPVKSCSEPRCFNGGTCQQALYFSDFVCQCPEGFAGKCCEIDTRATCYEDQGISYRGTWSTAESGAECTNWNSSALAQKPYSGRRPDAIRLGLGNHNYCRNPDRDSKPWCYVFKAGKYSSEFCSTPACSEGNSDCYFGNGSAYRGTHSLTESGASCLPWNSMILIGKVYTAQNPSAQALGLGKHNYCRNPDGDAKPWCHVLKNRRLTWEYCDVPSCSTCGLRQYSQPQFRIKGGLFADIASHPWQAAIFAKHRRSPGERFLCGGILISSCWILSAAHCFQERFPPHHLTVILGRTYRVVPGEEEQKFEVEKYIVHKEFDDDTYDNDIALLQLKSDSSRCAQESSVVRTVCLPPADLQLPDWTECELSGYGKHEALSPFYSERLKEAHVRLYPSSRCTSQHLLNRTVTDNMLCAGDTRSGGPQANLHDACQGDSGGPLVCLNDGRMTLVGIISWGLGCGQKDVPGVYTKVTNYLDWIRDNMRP

Substance | proteolysis of myc-tagged NR1-1a (immunoblot) [1] | NR1 cleavage product in CA1 region after 15 minutes of 3 U/ml thrombin on slices [2] | maximal percent of NR1 cleaved, striatal membranes [2] | percent of NR1 cleaved, all brain regions except striatum, 1-3 micromolar thrombin [2] | percent of NR1 cleaved, cerebellar, cortical and brainstem membranes, 300 nM thrombin [2] | percent of NR1 cleaved, hippocampal membranes, 30 nM thrombin [2] | percent of NR1 cleaved, striatal membranes, 30 nM thrombin [2] | proteolysis of NR1 (immunoblot) [2] | PI hydrolysis in hippocampal slices [3] | proteolysis of recombinant NR1-1b (immunoblot) [4] | PI hydrolysis after tPA application to hippocampal slices [3] | PI hydrolysis in hippocampal slices [5]
alpha-thrombin | Thrombin induced a similar shift in molecular weight for N-terminal myc-tagged NR1 as observed for the recombinant and native receptors detected with mAb54.1 | no NR1 cleavage product was observed in immunoblots of membranes obtained from the CA1 region microdissected immediately following the experiment | the maximal observed cleavage of 52% suggests a thrombin resistant population of NR1 subunits exists | 1-3 micromolar thrombin cleaved 100% or subunits in all brain regions except striatum | cerebellar (n=7), cortical (n=5), and brainstem (n=5) NR1 subunits were insensitive to cleavage by 300 nM thrombin (30 U/ml) | 30 nM thrombin (3 U/ml) cleaved 20% of the NR1 subunit in hippocampal membranes (n=7) | 50% of NR1 in striatal membranes (n=10) | Incubation of brain membranes with thrombin for 1 hour at 37 °C resulted in the appearance of a new band that was 12 kD (n=10) lower in molecular weight than the parent band | Both thrombin and plasmin increased PI hydrolysis in wild type hippocampus, but not in the hippocampus of PAR1-/- mice | 10-1000 U/ml of thrombin cleaved both homomeric NR1-1b receptors (n=9/10 experiments) and heteromeric NR1-1b/NR2B receptors (n=6/6 experiments) |  | 
plasmin |  |  |  |  |  |  |  |  | Both thrombin and plasmin increased PI hydrolysis in wild type hippocampus, but not in the hippocampus of PAR1-/- mice |  | Application of tPA to wild type hippocampal slices significantly increased PI hydrolysis compared with application to PAR1-/-hippocampal slices | 
tissue plasminogen activator |  |  |  |  |  |  |  |  |  |  |  | application of tPA did not increase PI hydrolysis in plasminogen-deficient mice
